In publication PMC11570472, “Activity and phosphatidylcholine transfer protein interactions of skeletal muscle thioesterase Them2 enable hepatic steatosis and insulin resistance” (The Journal of Biological Chemistry, 2024):

Target: the molecule itself
Assay: SEC; purified recombinant protein (100 uM) on an analytical Superdex 75 10/300 column, 0.5 ml/min, UV absorbance at 280 nm

B1: His-tagged WT mouse Thioesterase superfamily member 2 (Them2), purified recombinant (enzyme, UniProt Q9CQR4 1-140, looked up)
chain: MSSMTQNLREVMKVMFKVPGFDRVLEKVTLVSAAPEKLICEMKVEEQHTNKLGTLHGGLTATLVDSISTMALMCTERGAPGVSVDMNITYMSPAKIGEEIVITAHILKQGKTLAFASVDLTNKTTGKLIAQGRHTKHLGN
notes: also called WT Them2; acyl-CoA thioesterase 13
stoichiometry N: 4

B2: His-tagged N50A/D65A mouse Them2, purified recombinant (enzyme, UniProt Q9CQR4 1-140, looked up)
chain: MSSMTQNLREVMKVMFKVPGFDRVLEKVTLVSAAPEKLICEMKVEEQHTAKLGTLHGGLTATLVASISTMALMCTERGAPGVSVDMNITYMSPAKIGEEIVITAHILKQGKTLAFASVDLTNKTTGKLIAQGRHTKHLGN
notes: also called N50A/D65A Them2
stoichiometry N: 4
